Source: US20260285989 (published 2026)
Numbering of substitutions follows the chain as printed.

T1: IL-18R1 ECD-His (human)
T1 chain: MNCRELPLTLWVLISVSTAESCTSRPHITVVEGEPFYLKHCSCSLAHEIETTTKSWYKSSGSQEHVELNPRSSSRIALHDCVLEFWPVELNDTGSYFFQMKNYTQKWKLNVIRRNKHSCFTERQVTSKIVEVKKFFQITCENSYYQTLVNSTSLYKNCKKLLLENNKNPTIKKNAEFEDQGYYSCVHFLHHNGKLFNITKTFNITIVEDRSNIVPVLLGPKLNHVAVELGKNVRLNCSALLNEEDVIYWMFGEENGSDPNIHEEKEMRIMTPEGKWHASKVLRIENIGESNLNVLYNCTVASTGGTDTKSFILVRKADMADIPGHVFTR

T2: IL-18RAP ECD-His (human)
T2 chain: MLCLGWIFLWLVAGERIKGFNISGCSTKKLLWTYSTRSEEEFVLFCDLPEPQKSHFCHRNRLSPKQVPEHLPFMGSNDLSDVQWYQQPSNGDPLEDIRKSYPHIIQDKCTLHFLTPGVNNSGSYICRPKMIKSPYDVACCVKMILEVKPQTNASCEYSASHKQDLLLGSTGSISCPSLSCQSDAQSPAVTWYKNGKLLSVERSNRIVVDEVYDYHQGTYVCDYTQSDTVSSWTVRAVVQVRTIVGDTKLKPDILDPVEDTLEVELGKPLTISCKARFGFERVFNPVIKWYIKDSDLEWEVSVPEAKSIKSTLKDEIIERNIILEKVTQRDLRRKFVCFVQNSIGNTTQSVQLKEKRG

B1: hzR1-F9-hFc (antibody, V domains shown)
VH: EVQLVESGGGLVQPGGSLRLSCAASGFTVHDMGWYRQAPGKECELVSTISSDASTYYADSVKGRFTISRDNAKNTLYLQMNSLRAEDTAVYYCAADSFTGLQLAECKADFGYWGQGTLVTVSS
B2: hzR1-C7-hFc (antibody, V domains shown)
VH: EVQLVESGGGLVQPGGSLRLSCAASGNLYRDPCMGWFRQAPGKDREGVAAMNTGADSTFYARSVKGRFTISRDNAKNTLYLQMNSLRAEDTAVYYCAASRYCTERTYTWRYDYDYWGQGTLVTVSS
B3: hzR1-C10-hFc (antibody, V domains shown)
VH: EVQLVESGGGLVQPGGSLRLSCAASGSTFDEYDMGWYRQAPGGKCELVSTISTIDASTYYADSVKGRFTISRDNSKNTLYLQMNSLRAEDTAVYYCEADDRGTWDRGGCWGQGTLVTVSS
B4: R1-C10-hFc (antibody, V domains shown)
VH: QVQLQESGGGSVQAGETLRLSCTASGSTFDEYDMGWYRQAPGNKCELVSTISTIDGSTYYADSVKGRFTISQDNTKNTVYLQMNSLKPEDTGVYYCEADDRGTWDRGGCWGQGTQVTVSS
B5: R1-F9-hFc (antibody, V domains shown)
VH: QVQLQESGGGSVQAGETLRLSCTASGFTVHDMGWYRQAPGNECELVSTISSDGSTYYADSVKGRFTISQDNAKNTVYLQMNSLKPEDTAVYYCAADHFTGLQLAECKADFGYWGQGTQVTVSS
B6: R1-A12-hFc (antibody, V domains shown)
VH: QVQLQESGGGPVQAGGSLRLSCSASTTAYDNACMGWFRQAPGKEREGVASIHLRDRTYYADSVKGRFTLSRDGASKTLYLQMNSLKPEDSGTYYCASSNICNGLNLQGNTYWGQGTQVTVSS
B7: R1-C7-hFc (antibody, V domains shown)
VH: QVQLQESGGGPVQAEGSLRLSCTASGNLYRDPCMGWFRQAPGKDREGVAAMNTGADSTFYARSVKGRFTISHDNAKNTLYLQMNSVKPEDTAMYYCAASRYCTERTWTWRYDYDYWGQGTQVTVSS
B8: hzR1-A12-hFc (antibody, V domains shown)
VH: EVQLVESGGGLVQPGGSLRLSCAASGTAYDNACMGWFRQAPGKEREGVASIHLRDRTYYADSVKGRFTISRDNSKNTLYLQMNSLRAEDTAVYYCASSNICNALNLQGNTYWGQGTLVTVSS
B9: hzRap-F11-hFc (antibody, V domains shown)
VH: EVQLVESGGGLVQPGGSLRLSCAASGFTYIPAYMGWFRQAPGKERERVASIKTDASTTYADSVEGRFTISQDNAKNTLYLQMNSLRPEDTAVYYCAAYQFGAFRVWGQGTLVTVSS
B10: Rap-C10-hFc (antibody, V domains shown)
VH: QVQLQESGGGSVQPGGSLRLSCAASGFTYIPAYMGWFRQAPGKERERVASISSTDGSTTYADSVKGRFTVSQDTAKNTLYLQMNSLKPEDTAMYYCAAYQFGAFRVWGQGTQVTVSS
B11: hzRap-C10-hFc (antibody, V domains shown)
VH: B10 VH with Q1E, Q5V, S11L, D55E, V70I, T74N, A75S, K87R, M93V, Q112L
B12: Rap-A10-hFc (designed binder)
chain: QVQLQESGGGLVQAGGSLKLSCAASGYTYGPYCMGWFRQFPGKEREGVAAVGGDGRTWYGNSVKGRFTISQDNAKKTLYLQINALKPEDTAMYYCAADFDRTVCSDDIYDYTYRGQGTQVTVSS
B13: hzRap-A10-hFc (designed binder)
chain: EVQLLESGGGLVQPGGSLRLSCAASGYTYGPYCMGWFRQAPGKEREGVAAVGGDARTWYGNSVKGRFTISRDNSKNTLYLQMNSLRAEDTAVYYCAADFDRTVCSDDIYDYTYRGQGTLVTVSS
B14: Rap-F11-hFc (antibody, V domains shown)
VH: QVQLQESGGGSVQPGGSLRLSCAASGFTYIPAYMGWFRQAPGKERERVASIKTDGSTTYADSVNGRFTIAQDTAKNTLYLQMDSLKPEDTAMYYCAAYQFGAFRVWGQGTQVTVSS

Target: T1, IL-18R1 ECD-His
Assay: BLI

Row | Kd [nM] | Binder
1 | 3.74 | B1
2 | 2.53 | B2
3 | 1.45 | B3
4 | 0.0281 | B4
5 | 1.1 | B5
6 | 2.82 | B6
7 | 2.56 | B7
8 | 2 | B8

Target: T2, IL-18RAP ECD-His
Assay: BLI

Row | Kd [nM] | Binder
9 | 4.85 | B9
10 | 1.73 | B10
11 | 6.24 | B11
12 | 0.53 | B12
13 | 0.986 | B13
14 | 4.58 | B14
